{"source": "patent US20040265325A1", "molecular_target": "CD8+ T cells (T cell receptors) of CMV-seropositive human donors", "assay": "flow cytometry, tetramer staining of CD8+ cells; background that was subtracted", "note": "Values joined by “and” are separate entries in the source; they are usually repeats but may differ in a detail not shown here. Equal entries are not always repeated."}
{"substance": "HIV pol464-472 control tetramer (from UniProt P61769 21-119) (peptide-MHC)", "values": [{"measurement": "CD8+ binding percentages to control tetramer", "result": "0.07% and 0.1%"}]}
